Reference: publication PMC9695418, “The Synthesis and Preclinical Investigation of Lactosamine-Based Radiopharmaceuticals for the Detection of Galectin-3-Expressing Melanoma Cells” (Pharmaceutics, 2022)

Key:
[1] = system: human galectin-3 CRD; settings: fold greater affinity than lactose; cited from earlier work
[2] = system: subcutaneous B16-F10 tumors; settings: mouse, in vivo
Description: (§1) After in vivo PET imaging (100 min post injection), control and B16-F10 tumor-bearing mice were euthanized with 5% isoflurane (Forane, AbbVie, Budapest, Hungary; OGYI-T-1414/01). For the assessment of the radiotracer uptake, the radioactivity concentration (%ID/g tissue) of the selected organs was measured with a calibrated gamma counter (Perkin-Elmer Packard Cobra, Waltham, MA, USA) (Supplementary Material Table S1).

[3] = in vivo; settings: C57BL/6, mouse, iv, total radioactivity
Description: as §1

[4] = in vivo; settings: C57BL/6, mouse, iv, total radioactivity, SUVmean of the liver
Description: Both normal control and B16-F10 tumorous mice were iv. administered with 6.8 ± 0.9 MBq [^68Ga]Ga-DOTAGA-LacN(NAP), [^68Ga]Ga-DOTAGA-LacN(NAP)-cRGDfK, or [^68Ga]Ga-DOTAGA-cRGDfK in 120 μL saline through the lateral tail vein.

[5] = in vivo; parameters: species or system C57BL/6 mice; settings: C57BL/6, mouse, iv, total radioactivity
Text: As part of the ex vivo biodistribution studies—after PET imaging—the sacrifice of the experimental animals occurred followed by the gamma counter-based measurement of the radioactivity of the organs and tissues (Figure 7).
Significance level between the [^68Ga]Ga-DOTAGA-LacN(NAP) and the two other investigated radiotracers: p ≤ 0.01 (*).

[6] = ex vivo biodistribution: bone (femur)
[7] = ex vivo biodistribution: kidney
[8] = ex vivo biodistribution: large intestine
[9] = ex vivo biodistribution: muscle
[10] = ex vivo biodistribution: pancreas
[11] = ex vivo biodistribution: salivary glands
[12] = ex vivo biodistribution: small intestine
[13] = ex vivo biodistribution: spleen
[14] = uptake in subcutaneous B16-F10 tumors

Question: Which “affinity for the CRD of galectin-3 compared to the lactose molecule” value [1] does the source give for CC(=O)N[C@H]1C(O)O[C@H](CO)[C@@H](O[C@@H]2O[C@H](CO)[C@H](O)[C@H](O)[C@H]2O)[C@@H]1O (stereo partly drawn) [N-acetyl-lactosamine] here?
Answer: The value was 5 fold.

Question: What does the source list for N=C(N)NCCC[C@@H]1NC(=O)[C@H](CCCCNC(=O)CCOCCOCCOCCOCCNC(=O)CCC(=O)N2Cc3ccccc3-c3c(nnn3CCCO[C@@H]3O[C@H](CO)[C@@H](O[C@@H]4O[C@H](CO)[C@H](O)[C@H](OCc5ccc6ccccc6c5)[C@H]4O)[C@H](O)[C@H]3NC(=S)Nc3ccc(CNC(=O)CCC(C(=O)O)N4CCN(CC(=O)O)CCN(CC(=O)O)CCN(CC(=O)O)CC4)cc3)-c3ccccc32)NC(=O)[C@@H](Cc2ccccc2)NC(=O)[C@H](CC(=O)O)NC(=O)CNC1=O (stereo partly drawn) [[^68Ga]Ga-DOTAGA-LacN(NAP)-cRGDfK, metal not drawn]?
Answer: B16-F10/Liver ratio (T/L) [2]: 0.45 ± 0.11; B16-F10/Muscle ratio (T/M) [2]: 3.43 ± 1.09; tissue uptake at 100 min ([3]; ex vivo biodistribution: blood): 0.58 ± 0.14 %ID/g; tissue uptake at 100 min [3, 6]: 0.54 ± 0.21 %ID/g; tissue uptake at 100 min ([3]; ex vivo biodistribution: brain): 0.06 ± 0.01 %ID/g; tissue uptake at 100 min ([3]; ex vivo biodistribution: fat): 0.17 ± 0.13 %ID/g; tissue uptake at 100 min ([3]; ex vivo biodistribution: heart): 0.61 ± 0.17 %ID/g; tissue uptake at 100 min [3, 7]: 6.14 ± 1.14 %ID/g; tissue uptake at 100 min [3, 8]: 1.74 ± 0.7 %ID/g; tissue uptake at 100 min ([3]; ex vivo biodistribution: liver): 2.19 ± 0.73 %ID/g; tissue uptake at 100 min ([3]; ex vivo biodistribution: lungs): 1.54 ± 0.62 %ID/g; tissue uptake at 100 min [3, 9]: 0.27 ± 0.07 %ID/g; tissue uptake at 100 min [3, 10]: 0.43 ± 0.12 %ID/g; tissue uptake at 100 min [3, 11]: 1.34 ± 0.5 %ID/g; tissue uptake at 100 min [3, 12]: 1.77 ± 0.96 %ID/g; tissue uptake at 100 min [3, 13]: 1.6 ± 1.17 %ID/g; tissue uptake at 100 min [3, 14]: 0.8 ± 0.23 %ID/g; SUV at 80 min [4]: 1.25 ± 0.18 SUV; tissue uptake at 100 min ([5]; accumulation in the gall bladder): 3.07 ± 2.1 %ID/g; tissue uptake at 100 min ([5]; accumulation in the intestines): ~1.7 %ID/g; tissue uptake at 100 min ([5]; accumulation in the stomach): 1.7 ± 0.71 %ID/g

Question: What does the source list for N=C(N)NCCC[C@@H]1NC(=O)[C@H](CCCCNC(=S)Nc2ccc(CNC(=O)CCC(C(=O)O)N3CCN(CC(=O)O)CCN(CC(=O)O)CCN(CC(=O)O)CC3)cc2)NC(=O)[C@@H](Cc2ccccc2)NC(=O)[C@H](CC(=O)O)NC(=O)CNC1=O (stereo partly drawn) [[^68Ga]Ga-DOTAGA-cRGDfK, metal not drawn]?
Answer: B16-F10/Liver ratio (T/L) [2]: 0.35 ± 0.14; B16-F10/Muscle ratio (T/M) [2]: 4.54 ± 1.24; tissue uptake at 100 min ([3]; ex vivo biodistribution: blood): 0.37 ± 0.05 %ID/g; tissue uptake at 100 min [3, 6]: 0.26 ± 0.04 %ID/g; tissue uptake at 100 min ([3]; ex vivo biodistribution: brain): 0.03 ± 0.01 %ID/g; tissue uptake at 100 min ([3]; ex vivo biodistribution: fat): 0.19 ± 0.08 %ID/g; tissue uptake at 100 min ([3]; ex vivo biodistribution: gall bladder): 0.84 ± 0.29 %ID/g; tissue uptake at 100 min ([3]; ex vivo biodistribution: heart): 0.26 ± 0.06 %ID/g; tissue uptake at 100 min [3, 7]: 2.43 ± 0.26 %ID/g; tissue uptake at 100 min [3, 8]: 0.55 ± 0.16 %ID/g; tissue uptake at 100 min ([3]; ex vivo biodistribution: liver): 1 ± 0.25 %ID/g; tissue uptake at 100 min ([3]; ex vivo biodistribution: lungs): 0.66 ± 0.18 %ID/g; tissue uptake at 100 min [3, 9]: 0.1 ± 0.01 %ID/g; tissue uptake at 100 min [3, 10]: 0.18 ± 0.06 %ID/g; tissue uptake at 100 min [3, 11]: 0.54 ± 0.18 %ID/g; tissue uptake at 100 min [3, 12]: 0.78 ± 0.2 %ID/g; tissue uptake at 100 min [3, 13]: 0.8 ± 0.09 %ID/g; tissue uptake at 100 min ([3]; ex vivo biodistribution: stomach): 0.69 ± 0.21 %ID/g; tissue uptake at 100 min [3, 14]: 0.35 ± 0.12 %ID/g; SUV at 80 min [4]: 0.59 ± 0.08 SUV
